Measured values from patent US7763426B2, “Probes and methods for detection of Escheridia coli and antibiotic resistance” (priority 2004, dated 2010).
{Fluorescein} = fluorescein label (binding site for anti-fluorescein Fab-HRP); {Biotin} = biotin (capture probe anchor)

How the values were obtained:
Assay type in all cases: binding
[1] = test system: bacterial 16S rRNA; assay: Species specificity of short probe pairs, 16 sensor array at ambient temperature (Example 5); settings: for Species detected: ambient temperature hybridization; for Species not detected: * cross-reactivity at a level significantly less than with the target species
[2] = test system: 16S rRNA in lysates of uropathogens; assay: Species specificity of uropathogen probe pairs with the electrochemical sensor array (Example 1); settings: probe pairs of Table 1
[3] = test system: bacterial 16S rRNA; assay: Clinical validity study: UTI Chip on blinded clinical urine specimens
Method: Amperometric detection of bacterial 16S rRNA. An overview of the electrochemical sensor detection strategy is presented in panel C of FIG. 1. One ml of bacteria in Luria broth, inoculated clean urine, or clinical urine samples was centrifuged at 10,000×g for 5 min. The supernatant was discarded and the bacteria were lysed by resuspension of the pellet in 10 μl of 1 M NaOH and incubation at room temperature for 5 min. In some experiments, addition of 1M NaOH was preceded by resuspension of the bacterial pellet in 10 μl of 0.1% Triton X-100, 2 mM EDTA, and 1 mg/ml lysozyme (Sigma) in 20 mM Tris-HCl, pH 8.0, and incubation at room temperature for 5 min. 50 μl of the detector probe (0.25 μM) in 2.5% bovine serum albumin (Sigma, St. Louis, Mo.) 1 M phosphate buffer, pH 7.4, were added to the bacterial lysate and incubated for 10 min at 65° C. to allow target-probe hybridization. 4 μl of the bacterial lysate/detector probe mixture was deposited on each of the working electrodes in the sensor array and incubated for 15 min at 65° C. in a humidified chamber. After washing and drying, 4 μl of 0.5 U/ml anti-fluorescein horseradish peroxidase (HRP) Fab fragments (Roche, diluted in 0.5% casein in 10 mM phosphate buffered saline, pH 7.4) were deposited on each of the working electrodes for 15 min. After washing and drying, a prefabricated plastic well manifold (GeneFluidics, Monterey Park, Calif.) was bonded to the sensor array. The sensor array was put into the chip reader (FIG. 18) and 50 μl of 3,3′,5,5′-tetramethylbenzidine (TMB), H2O2 solution (K-Blue Low Activity TMB Substrate, Neogen, Lexington, Ky.) was placed on each of the sensors in the array so as to cover all three electrodes of each sensor. Electrochemical measurements are immediately and simultaneously taken for all 16 sensors. For each array, negative control (NC) sensors were tested including the UNI capture probe, detector probe, and 2.5% bovine serum albumin (Sigma, St, Louis, Mo.) in 1 M phosphate buffer, pH 7.4, instead of bacterial lysate. The entire assay protocol was completed within 45 min from the time when bacterial lysis was commenced. Amperometric current vs. time was measured using a multichannel potentiostat (GeneFluidics). The voltage was fixed at −200 mV (vs. reference), and the electroreduction current was measured at 60 s after the HRP redox reaction reached steady state.
Clinical validity study design. Clinical urine specimens were received from routine urine cultures collected from inpatients and outpatients and submitted to the UCLA Clinical Microbiology Laboratory. Routine plating on tripticase soy agar with 5% sheep blood was performed on each specimen for phenotypic identification and colony counting while an aliquot of each specimen was held at 4° C. overnight. On the day after plating, specimens were selected for inclusion in the study on the basis of a rapid indole test for the purpose of including uropathogens other than Escherichia coli in approximately one-half of the specimens. The other half of the specimens were divided between E. coli-containing specimens and specimens determined to have ““no significant growth” or no growth” (see definitions below). Because most UTIs involve a single uropathogen, specimens determined by the clinical microbiology laboratory to have more than one organism present were excluded. Blinded specimens selected for inclusion in the study were stripped of patient identifiers and any microbiological data before delivery to the research laboratory for testing with the electrochemical sensor array.
Experiments were performed on all specimens using the 16-sensor array ‘UTI Chip’, in which the UNI, EB, EC, PM, KE, PA, and EF capture probes (defined in Tables 1 and 2) were tested in duplicate. The two remaining sensors served as negative controls (including capture and detector probes without bacterial lysate). […]

[4] = specimens with Enterobacter aerogenes
[5] = specimens with Enterobacter cloacae
[6] = specimens with Klebsiella pneumoniae
[7] = specimens with Pseudomonas aeruginosa
[8] = specimens with Serratia marcescens
[9] = specimens with Citrobacter freundii
[10] = specimens with Citrobacter koseri
[11] = specimens with Enterobacteriaceae
[12] = specimens with Escherichia coli
[13] = specimens with Gram-negative bacteria
[14] = specimens with Proteus mirabilis

## EB1275C (23 mer)/EB1252C (23 mer): Enterobacteriaceae probe pair, SEQ ID NO: 54 and 55 (DNA 1 ACTTTATGAGGTCCGCTTGCTCT; DNA 2 CGCGAGGTCGCCTTCCTTTGTAT; DNA 1: DNA, 5' {Biotin}, backbone and methylation of C not given here; DNA 2: DNA, 3' {Fluorescein}, backbone and methylation of C not given here; listed as Enterobacter sp.)
[1]
  Species detected: Ec, Kp, Pm, Ea
[1]; ambient temperature
  Species not detected: Pa, Ef

## EF187C (20 mer)/EF167D (20 mer): Enterococcus spp. probe pair, SEQ ID NO: 52 and 53 (DNA 1 ACCGCGGGTCCATCCATCAG; DNA 2 CGACACCCGAAAGCGCCTTT; DNA 1: 5' {Biotin}, sugars by position and backbone not given here; DNA 2: 3' {Fluorescein}, sugars by position and backbone not given here; listed as Enterococcus sp.)
[1]
  Species detected: Ef
[1]; ambient temperature
  Species not detected: Ea, Ec, Kp, Pa, Pm

## KP436C (11 mer)/KP425D (11 mer): Klebsiella pneumoniae probe pair, SEQ ID NO: 48 and 49 (DNA 1 CTYAHCGCCTT; DNA 2 CCTCCCCGCTG; DNA 1: 5' {Biotin}, sugars by position, backbone and the base at N not given here; DNA 2: 3' {Fluorescein}, sugars by position and backbone not given here; listed as Klebsiella pneumoniae)
[1]
  Species detected: Kp
[1]; ambient temperature
  Species not detected: Ea, Ec, Ef, Pa, Pm

## PA122C (15 mer)/PA107D (15 mer): Pseudomonas aeruginosa probe pair, SEQ ID NO: 50 and 51 (DNA 1 CCCACTTTCTCCCTC; DNA 2 AGGACGTATGCGGTA; DNA 1: 5' {Biotin}, sugars by position and backbone not given here; DNA 2: 3' {Fluorescein}, sugars by position and backbone not given here; listed as Pseudomonas aeruginosa)
[1]; ambient temperature
  cross-reactivity with P. mirabilis 16S: Weak cross-reactivity
  Species not detected: Ea, Ec, Ef, Kp, Pm*
[1]
  Species detected: Pa

## PM197C (21 mer)/PM176D (21 mer): Proteus mirabilis probe pair, SEQ ID NO: 46 and 47 (DNA 1 CATCCGATAGTGCAAGGTCCG; DNA 2 AAGAGCCCCTGCTTTGGTCCG; DNA 1: 5' {Biotin}, sugars by position and backbone not given here; DNA 2: 3' {Fluorescein}, sugars by position and backbone not given here; listed as Proteus mirabilis)
[1]
  Species detected: Pm
[1]; ambient temperature
  Species not detected: Ea, Ec, Ef, Kp, Pa

B1: KE: Klebsiella & Enterobacter spp. probe pair: capture SEQ ID NO: 5, detector SEQ ID NO: 6 (nucleic acid, listed as Enterobacter sp.)
DNA 1: GTCAATCGMCRAGGTTATTAACCTYAHCGCCTTCC
DNA 2: CTGAAAGTGCTTTACAACCCGAAGGCCTTCTTCAT
modifications: DNA 1: DNA, 5' {Biotin}, backbone, methylation of C and the base at N not given here; DNA 2: DNA, 5' {Fluorescein}, backbone and methylation of C not given here; Capture probe contains degenerate positions (M, R, Y, H)
[2]
  Species detected: Ea, El, Ko, Kp
  Species not detected: Cf, Ec, Pa, Pm
[3]; [4]
  Mean (range): 0.86 (0.37-1.26) log10 units over background
  Positive/Total = Percent: KE 5/5 = 100%
[3]; [5]
  Mean (range): 0.34 log10 units over background
  Positive/Total = Percent: KE 1/1 = 100%
[3]; [6]
  Mean (range): 1.16 (0.76-1.50) log10 units over background
  Positive/Total = Percent: KE 7/8 = 88%

B2: PA: Pseudomonas aeruginosa probe pair: capture SEQ ID NO: 7, detector SEQ ID NO: 8 (nucleic acid, listed as Pseudomonas aeruginosa)
DNA 1: CCCACTTTCTCCCTCAGGACGTATGCGGTATTAGC
DNA 2: TTCCGGACGTTATCCCCCACTACCAGGCAGATTCC
modifications: DNA 1: DNA, 5' {Biotin}, backbone and methylation of C not given here; DNA 2: DNA, 5' {Fluorescein}, backbone and methylation of C not given here
[2]
  Species detected: Pa
  Species not detected: Ec, Ef, El, Eo, Kp, Pm
[3]; [7]
  Mean (range): 0.55 log10 units over background
  Positive/Total = Percent: Pa 1/1 = 100%
[3]; [8]
  Mean (range): Pa 0.36 log10 units over background
  Positive/Total = Percent: False Positive

B3: EB: Enterobacteriaceae probe pair: capture SEQ ID NO: 11, detector SEQ ID NO: 12 (nucleic acid, listed as Enterobacter sp.)
DNA 1: CGGACTACGACATACTTTATGAGGTCCGCTTGCTC
DNA 2: GAGGTCGCTTCTCTTTGTATATGCCATTGTAGCAC
modifications: DNA 1: DNA, 5' {Biotin}, backbone and methylation of C not given here; DNA 2: DNA, 5' {Fluorescein}, backbone and methylation of C not given here
[2]
  Species detected: Cf, Ea, Ec, El, Ko, Kp, Mm, Pm,
  Species not detected: Ef, Eo, Pa, Sa, Ss
[3]
  sensitivity for detection of Gram-negative bacteria in clinical urine specimens: 98%
[3]; All specimens with bacteria
  Positive/Total = Percent: 46/47 = 98%^2
[3]; No Growth specimens
  Positive/Total = Percent: 0/12 = 0%
[3]; No Significant Growth specimens
  Positive/Total = Percent: 0/8 = 0%
[3]; [9]
  Mean (range): 1.32 (1.25-1.38) log10 units over background
  Positive/Total = Percent: 2/2 = 100%
[3]; [10]
  Mean (range): 1.29 log10 units over background
  Positive/Total = Percent: 1/1 = 100%
[3]; [4]
  Mean (range): 1.20 (0.82-1.52) log10 units over background
  Positive/Total = Percent: 5/5 = 100%
[3]; [5]
  Mean (range): 1.08 log10 units over background
  Positive/Total = Percent: 1/1 = 100%
[3]; [11]
  Mean (range): 1.17 (0.46-1.60) log10 units over background
  Positive/Total = Percent: 46/47 = 98%
[3]; specimens with Enterococcus species
  Positive/Total = Percent: 0/8 = 0%
[3]; [12]
  Mean (range): 1.17 (0.46-1.60) log10 units over background
  Positive/Total = Percent: 25/26 = 96%
[3]; [13]
  Mean (range): 1.17 (0.46-1.60) log10 units over background
  Positive/Total = Percent: 46/47 = 98%^2
[3]; specimens with Gram-positive bacteria
  Positive/Total = Percent: 0/10 = 0%
[3]; [6]
  Mean (range): 1.13 (0.46-1.13) log10 units over background
  Positive/Total = Percent: 8/8 = 100%
[3]; [14]
  Mean (range): 1.14 (0.92-1.45) log10 units over background
  Positive/Total = Percent: 3/3 = 100%
[3]; [7]
  Positive/Total = Percent: 0/1 = 0%
[3]; [8]
  Mean (range): 1.36 log10 units over background
  Positive/Total = Percent: 1/1 = 100%
[3]; specimens with Staph. saprophyticus
  Positive/Total = Percent: 0/2 = 0%
